Data reported in paper PMC5974431.

T1: V1-TRF2, Q15554
T1 chain: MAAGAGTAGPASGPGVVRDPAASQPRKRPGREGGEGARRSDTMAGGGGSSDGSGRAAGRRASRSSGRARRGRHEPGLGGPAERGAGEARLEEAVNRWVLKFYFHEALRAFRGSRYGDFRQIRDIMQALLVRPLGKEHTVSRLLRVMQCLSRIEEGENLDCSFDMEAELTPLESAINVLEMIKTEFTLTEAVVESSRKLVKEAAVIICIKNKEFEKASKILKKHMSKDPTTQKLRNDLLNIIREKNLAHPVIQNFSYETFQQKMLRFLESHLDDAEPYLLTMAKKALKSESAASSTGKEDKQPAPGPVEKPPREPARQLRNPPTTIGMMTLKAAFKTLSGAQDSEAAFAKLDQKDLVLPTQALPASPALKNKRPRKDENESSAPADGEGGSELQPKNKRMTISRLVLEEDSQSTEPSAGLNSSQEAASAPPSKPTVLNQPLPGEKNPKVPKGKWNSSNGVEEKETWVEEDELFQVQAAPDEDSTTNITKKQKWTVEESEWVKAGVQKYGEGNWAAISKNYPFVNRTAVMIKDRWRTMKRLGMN


Target: T1, V1-TRF2, Q15554
Assay: protein fragment complementation assay (PCA), split Venus
Conditions: chain shown with the change; coexpression by cotransfection; three separate transfections each measured in triplicate; parent: est. 12500; read off a plot

response (fluorescence activity minus background)	Binder
5900	TIN2L-V2, Q9BSI4-1 R282H (protein) MATPLVAGPAALRFAAAASWQVVRGRCVEHFPRVLEFLRSLRAVAPGLVRYRHHERLCMGLKAKVVVELILQGRPWAQVLKALNHHFPESGPIVRDPKATKQDLRKILEAQETFYQQVKQLSEAPVDLASKLQELEQEYGEPFLAAMEKLLFEYLCQLEKALPTPQAQQLQDVLSWMQPGVSITSSLAWRQYGVDMGWLLPECSVTDSVNLAEPMEQNPPQQQRLALHNPLPKAKPGTHLPQGPSSRTHPEPLAGRHFNLAPLGRRRVQSQWASTRGGHKEHPTVMLFPFRNLGSPTQVISKPESKEEHAIYTADLAMGTRAASTGKSKSPCQTLGGRALKENPVDLPATEQKENCLDCYMDPLRLSLLPPRARKPVCPPSLCSSVITIGDLVLDSDEEENGQGEGKESLENYQKTKFDTLIPTLCEYLPPSGHGAIPVSSCDCRDSSRPL
5700	TIN2L-V2, Q9BSI4-1 D391K; D395K (protein) MATPLVAGPAALRFAAAASWQVVRGRCVEHFPRVLEFLRSLRAVAPGLVRYRHHERLCMGLKAKVVVELILQGRPWAQVLKALNHHFPESGPIVRDPKATKQDLRKILEAQETFYQQVKQLSEAPVDLASKLQELEQEYGEPFLAAMEKLLFEYLCQLEKALPTPQAQQLQDVLSWMQPGVSITSSLAWRQYGVDMGWLLPECSVTDSVNLAEPMEQNPPQQQRLALHNPLPKAKPGTHLPQGPSSRTHPEPLAGRHFNLAPLGRRRVQSQWASTRGGHKERPTVMLFPFRNLGSPTQVISKPESKEEHAIYTADLAMGTRAASTGKSKSPCQTLGGRALKENPVDLPATEQKENCLDCYMDPLRLSLLPPRARKPVCPPSLCSSVITIGKLVLKSDEEENGQGEGKESLENYQKTKFDTLIPTLCEYLPPSGHGAIPVSSCDCRDSSRPL
